Measured values taken from PMC7895943 (Communications Biology, 2021).

Molecular target: purified recombinant human α-synuclein (N-terminal histidine tagged) (human, UniProt P37840 1-140)
Assay: SPR; Biacore 3000; about 1500 RU of α-synuclein amine-coupled to a CM5 chip; peptides in two-fold dilutions (0.20-12.50 µM, in duplicate) injected 3 min at 30 µl/min, then 3 min dissociation; HBS pH 7.4 (10 mM HEPES, 150 mM NaCl, 3 mM EDTA, 0.005% P20); double-referenced; report points 20 s into dissociation (200 s)
Conditions: both partners purified

B1: Tat-βsyn-degron peptide (peptide)
peptide: YGRKKRRQRRRRTKSGVYLVGRRRG
notes: Tat plasma membrane transduction domain (HIV-1 Tat stretch); degron, proteasomal targeting signal; also called α-synuclein knockdown peptide; α-synuclein targeting peptide; source: synthetic peptide (GL Biochem, Shanghai)
Q: Does B1 bind?
A: binds
